One may read the Kd as the free concentration of one partner at which half of the binding sites on the other are occupied at equilibrium, for simple one-to-one binding.

Assay in all cases: Biacore
Assay [1] has as its target recombinant human SIRPα-His V8 (human, UniProt P78324 31-370).
Assay [2] deals with recombinant human SIRPα-His V2 (human, UniProt P78324 31-370).
The target in assay [3] is T1, recombinant cyno SIRPα-His (cynomolgus monkey, UniProt A0A2K5VYQ9 31-372).
T1 chain: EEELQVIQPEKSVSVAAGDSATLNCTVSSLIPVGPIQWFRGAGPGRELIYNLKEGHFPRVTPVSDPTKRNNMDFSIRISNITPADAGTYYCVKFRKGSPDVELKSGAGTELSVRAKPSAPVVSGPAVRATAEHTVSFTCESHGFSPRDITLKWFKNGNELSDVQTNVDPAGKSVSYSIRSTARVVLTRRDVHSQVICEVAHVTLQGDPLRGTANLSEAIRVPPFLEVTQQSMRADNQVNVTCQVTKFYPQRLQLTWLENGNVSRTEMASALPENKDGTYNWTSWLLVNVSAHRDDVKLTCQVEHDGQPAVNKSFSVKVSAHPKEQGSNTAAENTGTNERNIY

Where a chain is given by its changes, count along the chain named.

Sequence of recombinant human SIRPα-His V2 (P78324 other isoform, or with tags, fused parts or gaps): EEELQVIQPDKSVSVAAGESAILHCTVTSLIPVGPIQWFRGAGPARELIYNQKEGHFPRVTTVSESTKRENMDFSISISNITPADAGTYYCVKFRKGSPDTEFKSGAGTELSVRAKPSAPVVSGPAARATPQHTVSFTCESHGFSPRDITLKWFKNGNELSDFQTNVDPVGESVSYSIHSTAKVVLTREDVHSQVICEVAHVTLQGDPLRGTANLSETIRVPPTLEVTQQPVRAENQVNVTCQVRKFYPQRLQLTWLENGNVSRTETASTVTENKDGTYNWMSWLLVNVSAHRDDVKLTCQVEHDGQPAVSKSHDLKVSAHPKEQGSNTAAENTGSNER
Sequence of recombinant human SIRPα-His V8 (P78324 other isoform, or with tags, fused parts or gaps): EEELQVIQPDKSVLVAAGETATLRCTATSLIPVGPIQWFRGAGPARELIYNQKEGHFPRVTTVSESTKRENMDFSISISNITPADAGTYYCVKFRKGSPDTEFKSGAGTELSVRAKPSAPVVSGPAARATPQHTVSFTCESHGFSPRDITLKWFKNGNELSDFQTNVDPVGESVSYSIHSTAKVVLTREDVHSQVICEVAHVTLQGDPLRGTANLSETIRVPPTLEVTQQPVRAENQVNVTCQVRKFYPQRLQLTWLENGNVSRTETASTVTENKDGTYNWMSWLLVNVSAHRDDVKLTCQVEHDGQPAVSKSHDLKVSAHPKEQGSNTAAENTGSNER

B1: 49.91C2.A9 (antibody, V domains shown)
VH: EVKLLESGGGLVQPGGSLKLSCAASGFDFSRYWMSWVRQAPGKGLEWIGEINPDSSTINYTPSLKDKFIISRDNAKNTLYLQMSKVRSEDTALYYCATSFYGSSYWYFDVWGAGTTVTVSS
VL: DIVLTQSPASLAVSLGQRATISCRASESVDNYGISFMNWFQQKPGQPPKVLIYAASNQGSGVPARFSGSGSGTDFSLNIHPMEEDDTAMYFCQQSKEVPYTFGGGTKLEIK
With B1, the values for the Kd in assay [1] and in assay [2] were 35 nM and 40.2 nM, respectively.

B2: 54.69B10.E7 (antibody, V domains shown)
VH: EVQLVESGGGLVQPGGSLRLSCAASGFTFSSYDMHWVRQTTGKGLEWVSVIGIAGDTYYAGSVKGRFTISRENAKSSLYLQMNSLRAGDTAVYYCARGGNWDDAFDIWGQGTMVTVSS
VL: DIQMTQSPSSLSASVGDRVTITCRASQDINNYLAWFQQKPGKAPKSLIYTTSSLQSGVPSKFSGSGSGTDFTLTISSLQPEDFATYYCQQYVSYPYTFGQGTKLEIK
Regarding B2, the Kd in assay [1] is below 0.1 nM; in assay [3], 3.03 nM; in assay [2] it was below 0.1 nM.

B3: 54.76D9.B6 (antibody, V domains shown)
VH: B2 VH with T40A, A54S, A60P, S76N, Y79H, F105L
VL: B2 VL
Turning to B3, the Kd in assay [1] is below 0.1 nM; in assay [3], 3.17 nM; in assay [2] it was below 0.1 nM.

B4: 54.8A5.A5 (antibody, V domains shown)
VH: B2 VH with G10D, V12I, T28S, V50A, I53T, A60P, S76N, M113V
VL: B2 VL with K42R, Y49F, T51A, S53R, T72S, V92T, S93F
Take B4: the Kd amounted to 1.05 nM in assay [1], 72.3 nM in assay [3] and 1.13 nM in assay [2].

B5: 54.58C2.B9.A2 (antibody, V domains shown)
VH: B2 VH with T40A, A54S, A60P, S76N
VL: B2 VL
As for B5, the Kd is below 0.1 nM in assay [1], 2.65 nM in assay [3] and below 0.1 nM in assay [2].

B6: 49.64D3.A6 (antibody, V domains shown)
VH: EVMLVESGGGLVKPGGSLKLTCAASGFIFSNYAMSWVRQTPEKRLEWVATFSSGGSYTYYQDSVKGRFTVSRDNAKNTLYLQMSSLRSEDTAMYYCARSGWDGWFAYWGQGTLVTVSA
VL: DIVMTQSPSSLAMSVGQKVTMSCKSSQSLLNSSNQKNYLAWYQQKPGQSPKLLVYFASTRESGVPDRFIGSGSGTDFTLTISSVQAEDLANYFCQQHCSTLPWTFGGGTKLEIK
Consider B6, for which the dissociation constant (Kd) in assay [1] worked out at 2.66 nM; in assay [3], 22.6 nM; in assay [2], 3.17 nM.

B7: 49.56C11.C1 (antibody, V domains shown)
VH: B6 VH with I28T, Y32H, S52G, Q61L, A97S
VL: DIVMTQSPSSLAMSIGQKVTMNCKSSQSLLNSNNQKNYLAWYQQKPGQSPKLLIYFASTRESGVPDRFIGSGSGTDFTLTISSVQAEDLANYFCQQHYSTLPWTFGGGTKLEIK
B7: the Kd in assay [1] stood at 2.68 nM; in assay [3], 22.3 nM; in assay [2], 3.41 nM.

B8: 53.21A9.B11 (antibody, V domains shown)
VH: QVQLQESGPGLVKPSETLSLTCTVSGGSVSSGRYYWSWIRQPPGKGLEWIGYIYYSGSTNYNPSLKSRVTISVDTSKNQFSLKLTSVTAADTAVYYCARAYDWNYFFDYWGQGTLVTVSS
VL: DIVMTQSPLSLPVTPGEPASISCRSSQSLLYSNGYNYLEWYLQKPGQSPQLLIYLGSNRASGVPDRFSGSGSGTDFTLQISRVEAEDVGVYYCMQGLQTPITFGQGTRLEIK
For B8, the Kd was 62.3 nM in assay [1], 116 nM in assay [3] and 67.6 nM in assay [2].

B9: 56.16A1.H11 (antibody, V domains shown)
VH: EVQLVESGGGLVQPGRSMKLSCAASGFIFTNYDMAWVRQAPTKGLEWVASISYGGSRIYYRDSVKGRFTISRDDAKSTLYLQMDSLRSEDTATYYCTTDYGYNPSYYWYFDFWGPGTMVTVSS
VL: DIQMTQTPSSMPASLGERVTISCRASQGISNYLNWYQQKPDGTIKPLIYYTSNLQSGVPSRFSGSGSGTDYSLTISSLEPEDFAMYYCQQYDSSPYTFGAGTKLELKR
For the molecule B9, the figures for the Kd in assay [1], in assay [3] and in assay [2] were 0.337 nM, 1.19 nM and 0.981 nM, respectively.

Source of the values: patent publication US20260234283A1 (published 2026).
